The results in this text go back to patent publication US6261772.

Data set [1] concerns the target T1, VP16-HA-Tap full length (Homo sapiens) (UniProt Q9UBU9).
T1 sequence: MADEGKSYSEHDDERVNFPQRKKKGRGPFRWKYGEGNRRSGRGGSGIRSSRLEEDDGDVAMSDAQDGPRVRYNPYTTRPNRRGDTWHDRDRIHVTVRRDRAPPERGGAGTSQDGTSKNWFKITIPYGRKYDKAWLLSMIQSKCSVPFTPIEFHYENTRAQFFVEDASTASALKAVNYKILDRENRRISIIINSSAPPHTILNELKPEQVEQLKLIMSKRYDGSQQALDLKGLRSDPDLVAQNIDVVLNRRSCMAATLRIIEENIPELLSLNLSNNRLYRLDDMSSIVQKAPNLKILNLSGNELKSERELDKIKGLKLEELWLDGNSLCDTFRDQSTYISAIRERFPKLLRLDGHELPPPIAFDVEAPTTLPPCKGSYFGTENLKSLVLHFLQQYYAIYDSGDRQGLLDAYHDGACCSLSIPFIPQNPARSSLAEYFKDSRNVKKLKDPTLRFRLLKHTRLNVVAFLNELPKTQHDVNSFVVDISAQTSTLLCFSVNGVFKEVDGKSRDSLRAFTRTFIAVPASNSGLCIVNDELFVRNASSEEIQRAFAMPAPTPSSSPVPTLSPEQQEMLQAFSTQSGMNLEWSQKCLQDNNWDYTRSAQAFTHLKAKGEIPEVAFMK
The experiment in a line: one_hybrid.

Data set [2] concerns the target T2, Tat-Tap full length (Homo sapiens) (UniProt Q9UBU9).
T2 sequence: T1 sequence
The experiment in a line: cell_activity. Conditions: 293T.

In turn, HIV-1 TAR yielded an activity in data set [1] (yeast three-hybrid) of less than 4 mOD/ml.

For the substance CTE antisense, in data set [1] (yeast three-hybrid), the activity was less than 4 mOD/ml.

In data set [1] (yeast three-hybrid beta-gal, VP16 alone 11), MPMV CTE came in with an activity of 602 mOD/ml. In addition, in data set [2], the activity (fold activation) turned out to be 20.

In data set [1] (yeast three-hybrid), iron response element showed an activity of less than 4 mOD/ml.
